US20070020757A1

Columns and labels:
[1] = molecular target: receptor for Angptl2 expressed on mouse bone marrow hematopoietic stem cells (unidentified) (mouse); assay: flow cytometry; 4 day cultured mouse bone marrow cells, ~1 ug/ml Flag-Angptl2 medium
[2] = molecular target: receptor for Angptl2 expressed on mouse bone marrow hematopoietic stem cells (unidentified) (mouse); assay: flow cytometry; fresh mouse bone marrow cells, ~1 ug/ml Angptl2-hFc at 4 C for 30 min, anti-human IgG1-PE

Row | Substance | percent of total cells that bind [1] [%] | percent of total bone marrow cells that bind [2] [%]
1 | FLAG-hAngptl2 (human Angptl2 with a FLAG tag fused at the C-terminus) (from UniProt Q9UKU9 23-493) (ligand) | 5.3 | –
2 | Angptl2-hFc (human Angptl2 fused to Pro 100-Lys 330 of human IgG1 Fc) (from UniProt Q9UKU9 23-493) (Fc fusion) | – | 12.8
